According to the supplement of paper PMC9112550, “Optimization of the antimicrobial peptide Bac7 by deep mutational scanning” (BMC Biology, 2022):

System: Escherichia coli TOP10
Experiment: shrunken log2 fold change of peptide-encoding DNA abundance (4.5 h post-induction vs induction); higher = less antimicrobial activity (less host growth inhibition)
Conditions: time post-induction: 4.5 h; library: site-saturation at positions 5, 18, 19, 20
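Further: peptides expressed intracellularly from a pBAD plasmid library in pooled LB shake-flask culture, induced with 0.3% L-arabinose, DNA abundance read by NGS, three biological replicates, DESeq2 with apeglm shrinkage.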

Sequence	shrunken log2 fold change
RRIRVRPPRLPRPRPRPKKDPRP	-0.262
RRIRDRPPRLPRPRPRPTSIPRP	0.099
RRIRSRPPRLPRPRPRPETQPRP	0.29
RRIRIRPPRLPRPRPRPLHMPRP	-0.571
RRIRTRPPRLPRPRPRPGCHPRP	-0.136
RRIRWRPPRLPRPRPRPRITPRP	0.00862
RRIRPRPPRLPRPRPRPVSDPRP	-0.0922
RRIRWRPPRLPRPRPRPNFVPRP	0.292
RRIRKRPPRLPRPRPRPMATPRP	0.329
RRIRDRPPRLPRPRPRPQIEPRP	-0.0186
RRIRFRPPRLPRPRPRPHKYPRP	-0.411
RRIRPRPPRLPRPRPRPVTMPRP	-0.297
RRIRGRPPRLPRPRPRPIDTPRP	0.306
RRIRARPPRLPRPRPRPVMWPRP	0.555
RRIRPRPPRLPRPRPRPTQGPRP	0.753
RRIRERPPRLPRPRPRPVREPRP	0.242
RRIRLRPPRLPRPRPRPGGDPRP	0.152
RRIRIRPPRLPRPRPRPIWCPRP	-0.00146
RRIRLRPPRLPRPRPRPYNSPRP	-0.514
RRIRTRPPRLPRPRPRPWPDPRP	-0.0269
RRIRGRPPRLPRPRPRPNILPRP	0.199
RRIRKRPPRLPRPRPRPKTEPRP	-0.0466
RRIRTRPPRLPRPRPRPDQCPRP	0.0333
RRIRNRPPRLPRPRPRPDNYPRP	-0.341
RRIRERPPRLPRPRPRPDWFPRP	-0.00866

Sequence	shrunken log2 fold change
RRIRRRPPRLPRPRPRPNKYPRP	0.861
RRIRPRPPRLPRPRPRPEIWPRP	0.374
RRIRTRPPRLPRPRPRPFYLPRP	-0.522
RRIRQRPPRLPRPRPRPKKIPRP	-0.0759
RRIRDRPPRLPRPRPRPVEYPRP	0.0163
RRIRWRPPRLPRPRPRPQHNPRP	-0.537
RRIRRRPPRLPRPRPRPQTCPRP	0.247
RRIRDRPPRLPRPRPRPAGFPRP	0.0112
RRIRMRPPRLPRPRPRPGWDPRP	0.297
RRIRVRPPRLPRPRPRPTANPRP	0.221
RRIRQRPPRLPRPRPRPLIQPRP	-0.228
RRIRLRPPRLPRPRPRPHMIPRP	-0.672
RRIRTRPPRLPRPRPRPHLRPRP	-0.264
RRIRWRPPRLPRPRPRPPVLPRP	0.433
RRIRVRPPRLPRPRPRPFMAPRP	-0.128
RRIRPRPPRLPRPRPRPWLFPRP	-0.0483
RRIRNRPPRLPRPRPRPQAKPRP	-0.00911
RRIRQRPPRLPRPRPRPHWGPRP	0.0433
RRIRMRPPRLPRPRPRPPTYPRP	0.306
RRIRPRPPRLPRPRPRPDTIPRP	-0.247
RRIRFRPPRLPRPRPRPLKGPRP	-0.128
RRIRQRPPRLPRPRPRPGKLPRP	-0.0396
RRIRSRPPRLPRPRPRPHNIPRP	-0.211
RRIRTRPPRLPRPRPRPIQTPRP	-0.0398
RRIRPRPPRLPRPRPRPGMVPRP	0.268

Sequence	shrunken log2 fold change
RRIRQRPPRLPRPRPRPVNTPRP	-0.0633
RRIRERPPRLPRPRPRPNKMPRP	-0.324
RRIRFRPPRLPRPRPRPQNFPRP	0.0645
RRIRPRPPRLPRPRPRPADVPRP	0.0118
RRIRKRPPRLPRPRPRPFPKPRP	0.169
RRIRWRPPRLPRPRPRPCGMPRP	0.259
RRIRDRPPRLPRPRPRPALPPRP	0.328
RRIRDRPPRLPRPRPRPAPMPRP	0.445
RRIRVRPPRLPRPRPRPRPLPRP	0.378
RRIRFRPPRLPRPRPRPMQYPRP	-0.683
RRIRGRPPRLPRPRPRPYYIPRP	-0.233
RRIRHRPPRLPRPRPRPVYWPRP	-0.262
RRIRQRPPRLPRPRPRPYYLPRP	-0.253
RRIRRRPPRLPRPRPRPNCPPRP	0.039
RRIRDRPPRLPRPRPRPKKNPRP	0.125
RRIRFRPPRLPRPRPRPTDKPRP	0.00702
RRIRTRPPRLPRPRPRPTHSPRP	0.384
RRIRVRPPRLPRPRPRPPHTPRP	0.0516
RRIRNRPPRLPRPRPRPPDTPRP	-0.0361
RRIRFRPPRLPRPRPRPQAEPRP	-0.263
RRIRWRPPRLPRPRPRPDPIPRP	-0.242
RRIRARPPRLPRPRPRPKEIPRP	0.711
RRIRVRPPRLPRPRPRPKFCPRP	-0.137
RRIRDRPPRLPRPRPRPYLHPRP	-0.119
RRIRVRPPRLPRPRPRPKQQPRP	0.0386

Sequence	shrunken log2 fold change
RRIRRRPPRLPRPRPRPIGFPRP	0.0265
RRIRFRPPRLPRPRPRPKSKPRP	-0.0737
RRIRPRPPRLPRPRPRPRLKPRP	0.344
RRIRQRPPRLPRPRPRPMSYPRP	-0.01
RRIRQRPPRLPRPRPRPQMTPRP	-0.106
RRIRARPPRLPRPRPRPQTPPRP	0.456
RRIRLRPPRLPRPRPRPTWNPRP	-0.114
RRIRVRPPRLPRPRPRPLNRPRP	-0.328
RRIRLRPPRLPRPRPRPDTDPRP	0.0475
RRIRGRPPRLPRPRPRPRSSPRP	0.128
RRIRRRPPRLPRPRPRPIKVPRP	-0.186
RRIRHRPPRLPRPRPRPEWYPRP	0.0294
RRIRGRPPRLPRPRPRPGYPPRP	0.115
RRIRCRPPRLPRPRPRPFVKPRP	-0.4
RRIRFRPPRLPRPRPRPEKEPRP	-0.0104
RRIRKRPPRLPRPRPRPLEYPRP	-0.123
RRIRYRPPRLPRPRPRPQKYPRP	-0.969
RRIRFRPPRLPRPRPRPRDRPRP	0.387
RRIRIRPPRLPRPRPRPGASPRP	0.0546
RRIRIRPPRLPRPRPRPDCLPRP	0.0966
RRIRMRPPRLPRPRPRPVSEPRP	-0.38
RRIRSRPPRLPRPRPRPHAEPRP	0.156
RRIRHRPPRLPRPRPRPVLMPRP	-0.381
RRIRARPPRLPRPRPRPRTKPRP	0.565
RRIRERPPRLPRPRPRPFVCPRP	-0.582

Sequence	shrunken log2 fold change
RRIRGRPPRLPRPRPRPGFDPRP	0.97
RRIRGRPPRLPRPRPRPLWRPRP	0.625
RRIRNRPPRLPRPRPRPGLDPRP	0.00266
RRIRMRPPRLPRPRPRPLGNPRP	-0.0024
RRIRMRPPRLPRPRPRPKNIPRP	-0.232
RRIRQRPPRLPRPRPRPEVNPRP	-0.142
RRIRGRPPRLPRPRPRPNYAPRP	0.0408
RRIRKRPPRLPRPRPRPKNHPRP	0.109
RRIRSRPPRLPRPRPRPNKTPRP	-0.286
RRIRHRPPRLPRPRPRPSDHPRP	-0.548
RRIRERPPRLPRPRPRPFWPPRP	0.0458
RRIRSRPPRLPRPRPRPFCQPRP	-0.0847
RRIRHRPPRLPRPRPRPHQGPRP	-0.00197
RRIRARPPRLPRPRPRPFANPRP	0.0657
RRIRWRPPRLPRPRPRPCDRPRP	-0.0349
RRIRIRPPRLPRPRPRPPMGPRP	0.0153
RRIRCRPPRLPRPRPRPRRNPRP	-0.0367
RRIRYRPPRLPRPRPRPKEQPRP	0.00489
RRIRARPPRLPRPRPRPAWIPRP	0.116
RRIRPRPPRLPRPRPRPESKPRP	0.224
RRIRQRPPRLPRPRPRPQNPPRP	-0.0336
RRIRNRPPRLPRPRPRPSRHPRP	-0.061
RRIRKRPPRLPRPRPRPDSRPRP	-0.188
RRIRARPPRLPRPRPRPDDFPRP	-0.013
RRIRQRPPRLPRPRPRPHPNPRP	-0.389

Sequence	shrunken log2 fold change
RRIRMRPPRLPRPRPRPGGPPRP	0.119
RRIRGRPPRLPRPRPRPYYTPRP	1.19
RRIRGRPPRLPRPRPRPHCPPRP	0.084
RRIRCRPPRLPRPRPRPYNCPRP	-0.195
RRIRLRPPRLPRPRPRPQAKPRP	-0.0308
RRIRGRPPRLPRPRPRPMKAPRP	0.231
RRIRCRPPRLPRPRPRPDWYPRP	-0.241
RRIRARPPRLPRPRPRPNMYPRP	-0.38
RRIRRRPPRLPRPRPRPEEVPRP	0.0988
RRIRSRPPRLPRPRPRPHGWPRP	-0.107
RRIRSRPPRLPRPRPRPHPPPRP	0.436
RRIRVRPPRLPRPRPRPVQYPRP	-0.0224
RRIRPRPPRLPRPRPRPGQTPRP	-0.00112
RRIRKRPPRLPRPRPRPPSWPRP	0.401
RRIRARPPRLPRPRPRPCSAPRP	0.356
RRIRHRPPRLPRPRPRPQEYPRP	-0.128
RRIRFRPPRLPRPRPRPQECPRP	0.0519
RRIRERPPRLPRPRPRPTLKPRP	-0.197
RRIRERPPRLPRPRPRPYFMPRP	-0.784
RRIRLRPPRLPRPRPRPHQMPRP	-0.199
RRIRPRPPRLPRPRPRPSWFPRP	-0.248
RRIRARPPRLPRPRPRPLTTPRP	0.463
RRIRQRPPRLPRPRPRPEFIPRP	-0.163
RRIRHRPPRLPRPRPRPKTPPRP	0.155
RRIRCRPPRLPRPRPRPQLTPRP	-0.147
